The values below come from patent US20230051715A1 (MABWELL THERAPEUTICS, published 2023).

For assay [1], the target named is T1, human C1s mutant M8 (E351A) (human, UniProt P09871 16-688).
T1 construct: The entry is the mutant itself
T1 sequence: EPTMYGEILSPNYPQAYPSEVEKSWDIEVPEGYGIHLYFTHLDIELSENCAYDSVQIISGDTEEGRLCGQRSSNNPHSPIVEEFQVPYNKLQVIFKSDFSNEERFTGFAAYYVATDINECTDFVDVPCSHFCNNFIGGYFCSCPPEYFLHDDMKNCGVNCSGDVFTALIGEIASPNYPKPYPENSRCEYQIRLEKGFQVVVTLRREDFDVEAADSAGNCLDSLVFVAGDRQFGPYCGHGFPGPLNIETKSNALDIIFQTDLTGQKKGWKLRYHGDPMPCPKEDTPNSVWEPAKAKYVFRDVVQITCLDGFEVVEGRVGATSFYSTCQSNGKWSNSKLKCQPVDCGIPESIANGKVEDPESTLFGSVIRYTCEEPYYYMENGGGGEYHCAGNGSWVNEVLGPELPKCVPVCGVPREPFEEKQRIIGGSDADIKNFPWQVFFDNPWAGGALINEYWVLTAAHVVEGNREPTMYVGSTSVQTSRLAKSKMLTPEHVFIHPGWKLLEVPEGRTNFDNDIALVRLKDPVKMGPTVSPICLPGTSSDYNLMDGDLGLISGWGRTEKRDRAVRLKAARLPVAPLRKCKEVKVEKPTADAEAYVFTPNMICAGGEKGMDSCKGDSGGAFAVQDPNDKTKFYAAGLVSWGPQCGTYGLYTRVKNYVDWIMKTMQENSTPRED
The assay can be described thus: ELISA, plate coated with human C1s mutant M8: E351A, OD450nm. The method, then:
(§1) ELISA was carried out by first coating 96-well plates with 200 ng/well of full-length or truncated C1s proteins overnight. The next morning, plates were blocked with SuperBlock T20 blocking buffer (Thermo Scientific 37536) for 1 h with gentle shaking. Then, various concentrations of anti-C1s antibodies diluted in SuperBlock T20 blocking buffer were added to the plates and incubated for 1 h with gentle shaking. Mouse IgG (Sigma-Aldrich 15381) and human IgG1 (BioXCell BP0297) were used as negative controls. The plates were washed before incubating with HRP conjugated secondary antibodies diluted in SuperBlock T20 blocking buffer (goat anti-mouse IgG (H+L) cross-adsorbed secondary antibody HRP (Invitrogen G-21040) or goat anti-human IgG antibody, HRP conjugate (Millipore AP309P)) for 1 h with gentle shaking. At last, the plates were washed and color developed with ELISA liquid HRP substrate (Sigma-Aldrich), followed by stopping the reaction with addition of 1M H₂SO₄ in the same volume as the ELISA liquid substrate. Bound antibody was measured by absorbance at OD₄₅₀ₙₘ.
(§2) Binding of anti-C1s antibodies to mutants M1-M20 of human C1s was measured by ELISA as described in Example 4, and results are shown in FIGS. 6B-6U. All anti-C1s humanized variants including hz2-7(H1L2), hz2-8(H1L2 G80A) and hz2-8(H1L2 G80A/T82A) maintained strong binding properties to the majority (16 out of 20) of C1s mutants including M1 (FIG. 6B), M2 (FIG. 6C), M3 (FIG. 6D). M4 (FIG. 6E), M7 (FIG. 6H), M8 (FIG. 6I), M10 (FIG. 6K), M11 (FIG. 6L), M12 (FIG. 6M), M13 (FIG. 6N), M15 (FIG. 6P), M16 (FIG. 6Q), M17 (FIG. 6R), M18 (FIG. 6S), M19 (FIG. 6T) and M20 (FIG. 6U).
In general terms: An ELISA detects its analyte on a solid surface through an enzyme-linked reagent.

For assay [2], the target named is T2, human C1s mutant M7 (D343Y & E351A) (human, UniProt P09871 16-688).
T2 construct: The entry is the mutant itself
T2 sequence: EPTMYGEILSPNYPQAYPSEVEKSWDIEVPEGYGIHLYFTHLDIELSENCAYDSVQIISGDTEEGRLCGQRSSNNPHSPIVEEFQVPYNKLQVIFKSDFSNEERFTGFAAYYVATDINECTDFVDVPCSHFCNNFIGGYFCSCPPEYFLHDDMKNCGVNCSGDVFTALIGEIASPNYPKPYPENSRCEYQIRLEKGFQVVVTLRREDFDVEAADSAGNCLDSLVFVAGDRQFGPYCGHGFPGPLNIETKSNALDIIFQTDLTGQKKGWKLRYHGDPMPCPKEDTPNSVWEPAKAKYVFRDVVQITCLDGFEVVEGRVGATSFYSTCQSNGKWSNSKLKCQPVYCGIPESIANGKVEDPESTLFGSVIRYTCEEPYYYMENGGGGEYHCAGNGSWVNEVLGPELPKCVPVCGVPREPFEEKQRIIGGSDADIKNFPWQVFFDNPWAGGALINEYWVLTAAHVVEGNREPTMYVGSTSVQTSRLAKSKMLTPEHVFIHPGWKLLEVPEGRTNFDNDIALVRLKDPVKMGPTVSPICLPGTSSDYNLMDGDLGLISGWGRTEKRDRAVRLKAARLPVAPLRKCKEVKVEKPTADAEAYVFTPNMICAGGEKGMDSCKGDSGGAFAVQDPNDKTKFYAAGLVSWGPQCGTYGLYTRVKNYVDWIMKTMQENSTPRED
As to the kind of experiment: ELISA, plate coated with human C1s mutant M7: D343Y, E351A, OD450nm. The procedure:
as §1, §2

In assay [3] the target is T3, human C1s mutant M14 (R316H) (human, UniProt P09871 16-688).
T3 construct: The entry is the mutant itself
T3 sequence: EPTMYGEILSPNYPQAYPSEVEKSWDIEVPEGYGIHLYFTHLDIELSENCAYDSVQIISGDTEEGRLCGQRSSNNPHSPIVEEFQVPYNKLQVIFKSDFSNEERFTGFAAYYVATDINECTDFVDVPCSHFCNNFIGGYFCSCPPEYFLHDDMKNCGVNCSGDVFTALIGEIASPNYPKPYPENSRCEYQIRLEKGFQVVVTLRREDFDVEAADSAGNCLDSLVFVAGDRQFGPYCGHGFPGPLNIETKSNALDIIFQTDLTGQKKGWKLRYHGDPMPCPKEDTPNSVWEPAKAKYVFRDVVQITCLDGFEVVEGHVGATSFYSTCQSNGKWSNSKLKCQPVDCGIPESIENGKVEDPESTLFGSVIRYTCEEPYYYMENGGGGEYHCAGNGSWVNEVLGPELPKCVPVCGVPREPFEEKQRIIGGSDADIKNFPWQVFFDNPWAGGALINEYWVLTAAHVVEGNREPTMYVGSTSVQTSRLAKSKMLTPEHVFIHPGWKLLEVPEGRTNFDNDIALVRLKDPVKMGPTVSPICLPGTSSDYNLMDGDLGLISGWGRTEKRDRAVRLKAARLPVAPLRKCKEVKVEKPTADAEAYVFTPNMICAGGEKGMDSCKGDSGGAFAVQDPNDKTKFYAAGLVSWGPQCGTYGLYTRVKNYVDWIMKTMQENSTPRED
The assay can be described thus: ELISA, plate coated with human C1s mutant M14: R316H, OD450nm. The method, then: as §1, §2

B1: Anti-C1s antibody hz2-8 (H1L2 G80A) (antibody, V domains shown)
VH: QVQLVQSGAEVKKPGASVKVSCKASGFNIKEYYMHWVRQAPEQGLEWMGWIDPENADTIYAQKFQGRVTITADTSTNTAYMELSSLRSEDTAVYYCARSRLFFAYWGQGTLVTVSS
VL: DIQMTQSPKSLSASVGDRVTITCRASQDVRTALDWYQQKPGQSPKLLIYSASYRYSGVPSRFSGSGSGTDFTLTISSLQPEDFATYYCQQQYTTPYTFGQGTKLEIKR
notes: Humanized variant with G80A in HC CDR2 (already in the entry), human IgG1 / kappa
Regarding B1, the EC50 worked out at 0.01 µg/mL in assay [1], 0.012 µg/mL in assay [2] and 0.005 µg/mL in assay [3].

B2: Anti-C1s antibody hz2-8 (H1L2 G80A/T82A) (antibody, V domains shown)
VH: QVQLVQSGAEVKKPGASVKVSCKASGFNIKEYYMHWVRQAPEQGLEWMGWIDPENADAIYAQKFQGRVTITADTSTNTAYMELSSLRSEDTAVYYCARSRLFFAYWGQGTLVTVSS
VL: DIQMTQSPKSLSASVGDRVTITCRASQDVRTALDWYQQKPGQSPKLLIYSASYRYSGVPSRFSGSGSGTDFTLTISSLQPEDFATYYCQQQYTTPYTFGQGTKLEIKR
notes: Humanized variant with G80A and T82A in HC CDR2 (already in the entry), human IgG1 / kappa
Take B2: the values for the EC50 in assay [1], in assay [2] and in assay [3] were 0.011 µg/mL, 0.011 µg/mL and 0.008 µg/mL, respectively.

B3: Anti-C1s antibody hz2-7(H1L2) (antibody, V domains shown)
VH: EVQLLESGGGLVQPGGSLRLSCAASGFTFSNYFMNWVRQAPGKGLEWVSEIRLKFTNYATHYADSVKGRFTISRDDSKSTLYLQMNSLRAEDTAVYYCTRDYGSRNGYFDYWGQGTLVTVSS
VL: DIVMTQTPLSLPVTPGEPASISCRSSKSLLHSNGNTFLYWFLQKPGQSPQLLIYRMSNLASGVPDRFSGSGSGTDFTLKISRVEAEDVGVYYCMQHLEYPYTFGGGTKLEIKR
notes: Humanized, human IgG1 / kappa; also called hz2-7(1L2)
In the case of B3, the EC50 in assay [1] is 0.016 µg/mL; in assay [2], 0.015 µg/mL. The binding result in assay [3] is “no binding (tested: 1000 ng/ml (Log 3))”.

What is called EC50 is the midpoint of the concentration-response curve. Low readings indicate greater potency, high ones weaker potency.
